The labels stand for the following.
B1: Ankyrin-3, residues 4094 to 4171; numbered along this chain, Q12955 (parent)
chain: MAIVADHLGLSWTELARELNFSVDEINQIRVENPNSLISQSFMLLKKWVTRDGKNATTDALTSVLTKINRIDIVTLLE

± gives the uncertainty stated by the source.

The data set covers variants of B1. Put plainly: abundance fitness (aPCA) (normalised: wild type 0, dead -1); higher = more abundant; growth selection in yeast, the domain comes from the species named. The conditions noted are these: Homo sapiens.
Consider MAIVADHLALSWTELARELNFSVDEINQIRVENPNSLISQSFMLLKKWVTRDGKNATTDALTSVLTKINRIDIVTLLE, for which the abundance fitness was -0.499 ± 0.074. For the variant MAIVADHLPLSWTELARELNFSVDEINQIRVENPNSLISQSFMLLKKWVTRDGKNATTDALTSVLTKINRIDIVTLLE, the abundance fitness was -0.868 ± 0.12.

With MAIVADTLGLSWTELARELNFSVDEINQIRVENPNSLISQSFMLLKKWVTRDGKNATTDALTSVLTKINRIDIVTLLE, the abundance fitness was -0.175 ± 0.069. For MAIVADELGLSWTELARELNFSVDEINQIRVENPNSLISQSFMLLKKWVTRDGKNATTDALTSVLTKINRIDIVTLLE, the abundance fitness is 0.011 ± 0.074. Then MAIVADYLGLSWTELARELNFSVDEINQIRVENPNSLISQSFMLLKKWVTRDGKNATTDALTSVLTKINRIDIVTLLE, with -0.444 ± 0.13. MAIVADCLGLSWTELARELNFSVDEINQIRVENPNSLISQSFMLLKKWVTRDGKNATTDALTSVLTKINRIDIVTLLE: the abundance fitness was -0.637 ± 0.13. Next, MAIVADILGLSWTELARELNFSVDEINQIRVENPNSLISQSFMLLKKWVTRDGKNATTDALTSVLTKINRIDIVTLLE: -0.642 ± 0.26; MAIVADLLGLSWTELARELNFSVDEINQIRVENPNSLISQSFMLLKKWVTRDGKNATTDALTSVLTKINRIDIVTLLE: -0.366 ± 0.055. As to MAIVADMLGLSWTELARELNFSVDEINQIRVENPNSLISQSFMLLKKWVTRDGKNATTDALTSVLTKINRIDIVTLLE, the abundance fitness is -0.12 ± 0.085. On to MAIVADRLGLSWTELARELNFSVDEINQIRVENPNSLISQSFMLLKKWVTRDGKNATTDALTSVLTKINRIDIVTLLE, for which the abundance fitness is -0.05 ± 0.048. On to MAIVADVLGLSWTELARELNFSVDEINQIRVENPNSLISQSFMLLKKWVTRDGKNATTDALTSVLTKINRIDIVTLLE, for which the abundance fitness was -0.202 ± 0.057.

As to MAIVADSLGLSWTELARELNFSVDEINQIRVENPNSLISQSFMLLKKWVTRDGKNATTDALTSVLTKINRIDIVTLLE, the abundance fitness is -0.358 ± 0.065. Next, MAIVADPLGLSWTELARELNFSVDEINQIRVENPNSLISQSFMLLKKWVTRDGKNATTDALTSVLTKINRIDIVTLLE: -0.881 ± 0.11. Turning to MAIVADKLGLSWTELARELNFSVDEINQIRVENPNSLISQSFMLLKKWVTRDGKNATTDALTSVLTKINRIDIVTLLE, the abundance fitness was -0.016 ± 0.1. Take MAIVADWLGLSWTELARELNFSVDEINQIRVENPNSLISQSFMLLKKWVTRDGKNATTDALTSVLTKINRIDIVTLLE: the abundance fitness was -0.802 ± 0.21. For MAIVADFLGLSWTELARELNFSVDEINQIRVENPNSLISQSFMLLKKWVTRDGKNATTDALTSVLTKINRIDIVTLLE, the abundance fitness is -0.521 ± 0.22. Next, MAIVADQLGLSWTELARELNFSVDEINQIRVENPNSLISQSFMLLKKWVTRDGKNATTDALTSVLTKINRIDIVTLLE: -0.043 ± 0.066; MAIVADNLGLSWTELARELNFSVDEINQIRVENPNSLISQSFMLLKKWVTRDGKNATTDALTSVLTKINRIDIVTLLE: -0.292 ± 0.15. Then MAIVADALGLSWTELARELNFSVDEINQIRVENPNSLISQSFMLLKKWVTRDGKNATTDALTSVLTKINRIDIVTLLE, with -0.11 ± 0.051; and MAIVADDLGLSWTELARELNFSVDEINQIRVENPNSLISQSFMLLKKWVTRDGKNATTDALTSVLTKINRIDIVTLLE, with -0.796 ± 0.22. With MAIVADGLGLSWTELARELNFSVDEINQIRVENPNSLISQSFMLLKKWVTRDGKNATTDALTSVLTKINRIDIVTLLE, the abundance fitness is -0.705 ± 0.062. With MAIVADHSGLSWTELARELNFSVDEINQIRVENPNSLISQSFMLLKKWVTRDGKNATTDALTSVLTKINRIDIVTLLE, the abundance fitness was -0.916 ± 0.17.

On to MAIVADHFGLSWTELARELNFSVDEINQIRVENPNSLISQSFMLLKKWVTRDGKNATTDALTSVLTKINRIDIVTLLE, for which the abundance fitness is -0.463 ± 0.4.

Take MAIVADHGGLSWTELARELNFSVDEINQIRVENPNSLISQSFMLLKKWVTRDGKNATTDALTSVLTKINRIDIVTLLE: the abundance fitness is -0.983 ± 0.14. As for MAIVADHYGLSWTELARELNFSVDEINQIRVENPNSLISQSFMLLKKWVTRDGKNATTDALTSVLTKINRIDIVTLLE, the abundance fitness is -0.63 ± 0.3. For MAIVADHPGLSWTELARELNFSVDEINQIRVENPNSLISQSFMLLKKWVTRDGKNATTDALTSVLTKINRIDIVTLLE, the abundance fitness was -1 ± 0.19.

In the case of MAIVADHQGLSWTELARELNFSVDEINQIRVENPNSLISQSFMLLKKWVTRDGKNATTDALTSVLTKINRIDIVTLLE, the abundance fitness was -0.755 ± 0.19.

For MAIVADHVGLSWTELARELNFSVDEINQIRVENPNSLISQSFMLLKKWVTRDGKNATTDALTSVLTKINRIDIVTLLE, the abundance fitness is -0.769 ± 0.11. In the case of MAIVADHAGLSWTELARELNFSVDEINQIRVENPNSLISQSFMLLKKWVTRDGKNATTDALTSVLTKINRIDIVTLLE, the abundance fitness is -1.07 ± 0.23. For MAIVADHEGLSWTELARELNFSVDEINQIRVENPNSLISQSFMLLKKWVTRDGKNATTDALTSVLTKINRIDIVTLLE, the abundance fitness is -0.984 ± 0.22. As to MAIVADHRGLSWTELARELNFSVDEINQIRVENPNSLISQSFMLLKKWVTRDGKNATTDALTSVLTKINRIDIVTLLE, the abundance fitness was -0.829 ± 0.11. Consider MAIVADHCGLSWTELARELNFSVDEINQIRVENPNSLISQSFMLLKKWVTRDGKNATTDALTSVLTKINRIDIVTLLE, for which the abundance fitness was -0.787 ± 0.22. With MAIVADHWGLSWTELARELNFSVDEINQIRVENPNSLISQSFMLLKKWVTRDGKNATTDALTSVLTKINRIDIVTLLE, the abundance fitness was -0.552 ± 0.15. In the case of MAIVADHMGLSWTELARELNFSVDEINQIRVENPNSLISQSFMLLKKWVTRDGKNATTDALTSVLTKINRIDIVTLLE, the abundance fitness was -0.574 ± 0.15. Take MAIVADHKGLSWTELARELNFSVDEINQIRVENPNSLISQSFMLLKKWVTRDGKNATTDALTSVLTKINRIDIVTLLE: the abundance fitness is -0.696 ± 0.36.

For the origin of these results see the Human Domainome abundance scans (Beltran et al. 2025).
